US10800847

Assays:
[1] = target: HLA-B*4501 (B45) single antigen on Luminex beads (human); assay: Luminex single antigen, regular beads (#7), IVIg 1:8
[2] = target: HLA-B*4601 (B46) single antigen on Luminex beads (human); assay: as above
[3] = target: HLA-B*4101 (B41) single antigen on Luminex beads (human); assay: as above
[4] = target: HLA-B*4701 (B47) single antigen on Luminex beads (human); assay: as above
[5] = target: HLA-B*3701 (B37) single antigen on Luminex beads (human); assay: as above
[6] = target: HLA-B*4403 (B44) single antigen on Luminex beads (human); assay: as above
[7] = target: HLA-B*3901 (B39) single antigen on Luminex beads (human); assay: as above
[8] = target: HLA-B*4402 (B44) single antigen on Luminex beads (human); assay: as above
[9] = target: HLA-B*3801 (B38) single antigen on Luminex beads (human); assay: as above
[10] = target: HLA-B*3501 (B35) single antigen on Luminex beads (human); assay: as above
[11] = target: HLA-B*2708 (B27) single antigen on Luminex beads (human); assay: as above
[12] = target: HLA-B*4002 (B61) single antigen on Luminex beads (human); assay: as above
[13] = target: HLA-B*4006 (B61) single antigen on Luminex beads (human); assay: as above
[14] = target: Albumin on negative control beads (serum albumin, HSA/BSA) (human or bovine); assay: Luminex single antigen beads, regular beads (#7), 1:8
[15] = target: HLA-A*0301 (A3) on single antigen beads (human) (UniProt P04439); assay: as above
[16] = target: Albumin on negative control beads (serum albumin, HSA/BSA) (human or bovine); assay: Luminex, iBead MFI against regular bead MFI, 1:8
[17] = target: HLA-A*0301 (A3) on single antigen beads (human) (UniProt P04439); assay: Luminex, iBead MFI against regular bead MFI, 1:8
[18] = target: HLA-B*2705 (B27) single antigen on Luminex beads (human); assay: Luminex single antigen, iBeads (#6), IVIg 1:8
[19] = target: HLA-B*4501 (B45) single antigen on Luminex beads (human); assay: Luminex single antigen, iBeads (#6), IVIg 1:8
[20] = target: HLA-B*4601 (B46) single antigen on Luminex beads (human); assay: Luminex single antigen, iBeads (#6), IVIg 1:8
[21] = target: HLA-B*4101 (B41) single antigen on Luminex beads (human); assay: Luminex single antigen, iBeads (#6), IVIg 1:8
[22] = target: HLA-B*3701 (B37) single antigen on Luminex beads (human); assay: Luminex single antigen, iBeads (#6), IVIg 1:8
[23] = target: HLA-B*4403 (B44) single antigen on Luminex beads (human); assay: Luminex single antigen, iBeads (#6), IVIg 1:8
[24] = target: HLA-B*3901 (B39) single antigen on Luminex beads (human); assay: Luminex single antigen, iBeads (#6), IVIg 1:8
[25] = target: HLA-B*4402 (B44) single antigen on Luminex beads (human); assay: Luminex single antigen, iBeads (#6), IVIg 1:8
[26] = target: HLA-B*3801 (B38) single antigen on Luminex beads (human); assay: Luminex single antigen, iBeads (#6), IVIg 1:8
[27] = target: HLA-B*3501 (B35) single antigen on Luminex beads (human); assay: Luminex single antigen, iBeads (#6), IVIg 1:8
[28] = target: HLA-B*4001 (B60) single antigen on Luminex beads (human); assay: Luminex single antigen, iBeads (#6), IVIg 1:8
[29] = target: HLA-B*4201 (B42) single antigen on Luminex beads (human); assay: Luminex single antigen, iBeads (#6), IVIg 1:8
[30] = target: HLA-B*2708 (B27) single antigen on Luminex beads (human); assay: Luminex single antigen, iBeads (#6), IVIg 1:8
[31] = target: HLA-B*4002 (B61) single antigen on Luminex beads (human); assay: Luminex single antigen, iBeads (#6), IVIg 1:8
[32] = target: HLA-B*4006 (B61) single antigen on Luminex beads (human); assay: Luminex single antigen, iBeads (#6), IVIg 1:8
[33] = target: HLA-B*2705 (B27) single antigen on Luminex beads (human); assay: Luminex single antigen, iBead vs regular bead, IVIg 1:8
[34] = target: HLA-B*4501 (B45) single antigen on Luminex beads (human); assay: as above
[35] = target: HLA-B*4601 (B46) single antigen on Luminex beads (human); assay: as above
[36] = target: HLA-B*4101 (B41) single antigen on Luminex beads (human); assay: as above
[37] = target: HLA-B*4701 (B47) single antigen on Luminex beads (human); assay: as above
[38] = target: HLA-B*3701 (B37) single antigen on Luminex beads (human); assay: as above
[39] = target: HLA-B*4403 (B44) single antigen on Luminex beads (human); assay: as above
[40] = target: HLA-B*3901 (B39) single antigen on Luminex beads (human); assay: as above
[41] = target: HLA-B*4402 (B44) single antigen on Luminex beads (human); assay: as above
[42] = target: HLA-B*3801 (B38) single antigen on Luminex beads (human); assay: as above
[43] = target: HLA-B*3501 (B35) single antigen on Luminex beads (human); assay: as above
[44] = target: HLA-B*4001 (B60) single antigen on Luminex beads (human); assay: as above
[45] = target: HLA-B*4201 (B42) single antigen on Luminex beads (human); assay: as above
[46] = target: HLA-B*2708 (B27) single antigen on Luminex beads (human); assay: as above
[47] = target: HLA-B*4002 (B61) single antigen on Luminex beads (human); assay: as above
[48] = target: HLA-B*4006 (B61) single antigen on Luminex beads (human); assay: as above
[49] = target: Albumin on negative control beads (serum albumin, HSA/BSA) (human or bovine); assay: Luminex single antigen beads, iBeads (#6), 1:8
[50] = target: HLA-A*0301 (A3) on single antigen beads (human) (UniProt P04439); assay: Luminex single antigen beads, iBeads (#6), 1:8

Gamunex-C Lot NKLK1 (IVIg) (antibody) was tested, and the MFI [1] was 562 MFI, the MFI [2] was 2450 MFI and the MFI [3] was 605 MFI. For the same substance, the MFI [4] was 2030 MFI, the MFI [5] was 4790 MFI and the MFI [6] was 1210 MFI. It also gave an MFI [7] of 0 MFI, an MFI [8] of 5310 MFI and an MFI [9] of 1260 MFI. The MFI [10] was 1480 MFI, the MFI [11] was 0 MFI and the MFI [12] was 0 MFI. It also gave an MFI [13] of 4340 MFI, an MFI [14] of 10300 MFI and an MFI [15] of 410 MFI. For the same substance, the Difference % (iBead against regular bead) [16] was -24%, the Difference % (iBead against regular bead) [17] was -151% and the MFI [18] was 0 MFI. It also gave an MFI [19] of 399 MFI, an MFI [20] of 851 MFI and an MFI [21] of 0 MFI. For the same substance, the MFI [22] was 612 MFI, the MFI [23] was 836 MFI and the MFI [24] was 0 MFI. The MFI [25] was 786 MFI, the MFI [26] was 0 MFI and the MFI [27] was 577 MFI. It also gave an MFI [28] of 93 MFI, an MFI [29] of 0 MFI and an MFI [30] of 0 MFI. For the same substance, the MFI [31] was 0 MFI, the MFI [32] was 421 MFI and the Difference % (iBead against regular bead MFI) [33] was -100%. The Difference % (iBead against regular bead MFI) [34] was -29%, the Difference % (iBead against regular bead MFI) [35] was -65% and the Difference % (iBead against regular bead MFI) [36] was -100%. For the same substance, the Difference % (iBead against regular bead MFI) [37] was -39%, the Difference % (iBead against regular bead MFI) [38] was -87% and the Difference % (iBead against regular bead MFI) [39] was -31%. It also gave a Difference % (iBead against regular bead MFI) [40] of 0%, a Difference % (iBead against regular bead MFI) [41] of -85% and a Difference % (iBead against regular bead MFI) [42] of -100%. For the same substance, the Difference % (iBead against regular bead MFI) [43] was -61%, the Difference % (iBead against regular bead MFI) [44] was -93% and the Difference % (iBead against regular bead MFI) [45] was -100%. The Difference % (iBead against regular bead MFI) [46] was 0%, the Difference % (iBead against regular bead MFI) [47] was 0% and the Difference % (iBead against regular bead MFI) [48] was -90%. For the same substance, the MFI [49] was 7800 MFI and the MFI [50] was -211 MFI.
